Biological target: VEGF165 (UniProt P15692-4 27-191)
Experiment: hydrogel sequestration, anti-VEGFA immunofluorescence (confocal); aptamer tethered in GelMA hydrogel, 10 ng VEGF 1 h; GelMA region without aptamer about 16% of the aptamer-region signal; 0.1% BSA in DPBS, 37 °C, 10 ng VEGF in 1 ml for 1 h, wash, 24 h at 37 °C; 25 µM aptamer in 5% GelMA
Conditions: protein: commercial; chain copies: 2; single strand, covalently tethered in GelMA hydrogel

Chain of VEGF165 (P15692 other isoform, or with tags, fused parts or gaps): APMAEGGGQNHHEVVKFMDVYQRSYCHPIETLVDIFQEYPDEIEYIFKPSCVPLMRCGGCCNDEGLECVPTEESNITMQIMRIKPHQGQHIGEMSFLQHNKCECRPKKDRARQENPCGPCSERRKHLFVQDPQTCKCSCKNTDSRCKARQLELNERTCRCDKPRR

Q: Does CGATCGTATCAGTCCACAAGCCCGTCTTCCAGACAAGAGTGCAGGGC (ssDNA, 5'-acrydite) [VEGF165-specific 5'-acrydite aptamer] bind?
A: binds

Source: publication PMC9898740, “Spatial control of self-organizing vascular networks with programmable aptamer-tethered growth factor photopatterning”
